From patent publication US20230279105A1 (SINGLE CELL TECHNOLOGY, published 2023)

B1: SCT-Fa002 (antibody, V domains shown)
VH: EFQLQQSGPELVKPGASVKISCKASGYSFTDYNMNWVKQSNGKSLEWIGVNNPKYGTTTYNQKFKGKATLTVDQSSSTAYMQLNSLTSEDSAVYYCARRGYYYGSSYGYFDVWGTGTTVTVSS
VL: DILMTQSPSSMSVSLGDRVSIICHASQDIRSNIGWLQQKPGKSLKGLIYHGTNLEDGVPSRFSGSGSGADYSLTISSLESEDFADYYCVQYVQFPRTFGGGTKLEIK
notes: murine IgG
B2: SCT-Fa022 (antibody, V domains shown)
VH: EVQLQQPGAELVKPGASVKLSCKASGYTFTSYWIHWVKQRPGRGLEWIGRIDPNSGGTKYNEKFKSKATLTVDKPSSTAYMQLSSLTSEDSAVYYCTKDGNTPYYAMDYWGQGTSVTVSS
VL: SIVMTQTPKFLLVSAGDRVTITCKASQSVSNAVAWYQQKPGQSPKLLIYYASNRYTGVPDRFTGSGYGTDFTFTISTVQAEDLAVYFCQQDYSSPLTFGAGTKLELK
notes: murine IgG
B3: SCT-Fa181 (antibody, V domains shown)
VH: QVQLQQSGAELVRPGTSVKVSCKASGYAFTNYLIEWVKQRPGQGLEWIGVINPGSGATNYNEKFKGKATLTADKSSSTAYMQLRSLASEDSAVYFCARRTTVVAPYAMDYWGQGTSVTVSS
VL: DIQMTQTTSSLSASLGDRVTISCRASQDISNYLNWYQQKPDGTVELLIYYTSRLHSGVPSRFSGSGSGTDYSLTISNLEQEDIATYFCQQGNTLPRTFGGGTKLEIK
notes: murine IgG
B4: SCT-Fa023 (antibody, V domains shown)
VH: EVQLQQSGAELVKPGASVKLSCTASDFNIKDYYLHWVKQRTEQGLEWIGRIDPDDGETKYGPKFQGKATITADTSSNTAFLQLSSLTSEDTAVYFCSRSNPYYFDYWGQGTTLTVSS
VL: DIQMNQSPSSLSASLGDTITITCHVSQNINVWLSWYQQKPGNIPKLLIYKASNLHTGVTSRFSGSGAGTGFTLTISSLQPEDIATYYCQQGQNYPYTFGGGTKLEIK
notes: murine IgG
B5: SCT-Fa026 (antibody, V domains shown)
VH: EVQLQQSGAELVKPGASVKLSCTASGFNIKDFYMHWVHQRTEKGLEWIGRIDPEDGKTKYAPKFQGKATITADTSSNTAYLQLSSLTSEDTAVYYCARSNPYFFDYWGQGTTLTVSS
VL: DIQMNQSPSSLSASLGDTITITCHASQTINVWLSWYQQKPGNIPKLLIYKASNLHTGVPSRFSGSGSGTGFTLNISSLQPEDIATYYCHQGQSYPYTFGGGTKLEIK
notes: murine IgG
B6: SCT-Fa038 (antibody, V domains shown)
VH: EVQLQQSGAELVKPGASVKLSCTVSGFNIKDYYMHWVKQRTEQGLEWIGRIDPENDKIKYAPKFQGKATITADTSSNTVYLQLSSLTSEDTAVYYCARSNPYFFDYWGQGTTLTVSS
VL: DIQMNQSPSSLSASLGDTITITCHASQTINVWLSWYQQKPGNIPKLLIYKASNLHTGVPSRFSGSGSGTGFTLNISSLQPEDIATYYCHQGQSYPYTFGGGTKLEIK
notes: murine IgG
B7: SCT-Fa030 (antibody, V domains shown)
VH: EVQLQQSGAELVKPGASVKLSCTASGFNIKDYYMHWVKQRTEQGLEWIGRIDPEDGETKYAPKFQGKATITADTSSNTASLQLSSLTSEDTAVYYCARSNPYFFDYWGQGTPLTVSS
VL: DIQMNQSPSSLSASLGDTITITCHASQTINVWLSWYQQKPGNIPKLLIYKASKMHTGVPSRFSGSGSGTGFTLNISSLQPEDIATYYCHQGQSYPYTFGGGTKLEIK
notes: murine IgG
B8: SCT-Fa195 (antibody, V domains shown)
VH: QVQLRQSGAELVRPGTSVKLSCKASGYTLTDYYINWVKQRPGQGLEWIARIYPGNGNTYYNEKFKGKATLTAEKSSSTVNMQVSSLTSEDSAVYFCARGGSSDRIYYYAMDYWGQGTSVTVSS
VL: DIQVTQSSPFLSVSLGGRVIISCKASDHINNWLAWYQQKPGNAPRLLISGAINLETGVPSRFSGSGSGKDYTLSISSLQTEDVATYYCQQYWNTPYTFGGGTKLEIK
notes: murine IgG
B9: SCT-Fa186 (antibody, V domains shown)
VH: QVQLQQSGPELARPGASVKLSCKASGYTFRSNGISWVKQRTGQGLEWIGEIYPRSGNIYYNEKVKDKATLTADKSSNTAYMAVRSLTSEDSAVYFCARSTTVVAGGFDFWGQGTVLTVSS
VL: DIVMTQSPSSLTVTAGEKVTMSCKSSQSLLNSRTQKNSLTWYQQKPGQPPKLLIYWASTRESGVPDRFTGSGSGTDFTLTISSVQAEDLAIYYCQNDYTYPWTFGGGTELEIK
notes: murine IgG
B10: SCT-Fa193 (antibody, V domains shown)
VH: QVQLRQSGAELARPGASVKLSCKASGYTFTSYGITWVKQRTGQGLEWIGEIYPRSGNIYYNEKFKGKVTLTADKSSSTAYMELRSLTSEDSAVYFCARSTAVVAGGFDYWGQGTTLTVSS
VL: DVVMTQSPSSLTVTTGERVTVNCKSSQSLLNSRIQKNSLTWYQQKPGQPPKLLIYWASTRESGVPDRFTGSGSGTDFTLTISSVQAEDLAIYYCQNDYNYPWTFGGGTKLEIK
notes: murine IgG
B11: SCT-Fa192 (antibody, V domains shown)
VH: QVQLRQSGAELARPGASVKLSCKASGYTFTNYGITWVKQRTGQGLEWIGEIYPRSGNIYYNEKFKGKVTLTADKSSSTAYMELRSLTSEDSAVYFCARSTAVVAGGFDYWGQGTTLTVSS
VL: DIVMTQSPSSLTVTTGEKVTVNCKSSQSLLNSRIQKNSLTWYQQKPGQPPKLLIFWASTRESGVPDRFTGSESGTDFTLTISSVQAEDLAIYYCQNDYNYPWTFGGGTKLEIK
notes: murine IgG
B12: SCT-Fa007 (antibody, V domains shown)
VH: EVKLVESEGGLVHPGSSMKLSCTASGFTFSDYYMAWVRQVPEKGLEWIANINFDGSGTYYLDSLKSRFIISRDNGKNILYLQMSGLKSEDTATYYCARLYDGYYAYWGQGTTLTVSS
VL: DVVMTQTPLSLPVSLGDQASISCRSSQSLVHSNGNTYLYWYLQKPGQSPKLLIYKVSNRFSGVPDRFSGSGSGTDFTLKISRVEAEDLGVYFCSQSTHVPLTFGAGTKLELK
notes: murine IgG
B13: SCT-Fa008 (antibody, V domains shown)
VH: EVKLVESEGGLVQLGSSMKLSCTASGFTFSDYYMAWVRQVPEKGLEWIANINFDGSGTYYLDSLKSRFIISRDNGKNILYLQMSGLKSEDTATYYCARLYDGYYAYWGQGTTLTVSS
VL: DVVVTQTPLSLPVSLGDQASISCRSSQSLVHSNGNTYLYWYLQKPGQSPKLLIYKVSNRFSGVPDRFSGSGSGTDFTLKISRVEAEDLGVYFCSQSTHVPLTFGAGTKLELK
notes: murine IgG
B14: SCT-Fa018 (antibody, V domains shown)
VH: EVKLVESEGGLVQPGSSMKLSCTASGFTFSDYYMAWVRQVPEKGLEWVANINFDGSSSYYLDSLKSRFIISRDNTKNILYLQMSSLKSEDTATYYCARLYDGYYAYWGQGTTLTVSS
VL: DVVMTQTPLSLPVSLGDQASISCRSSQSLIHSNGNTYLYWYLQKPGQSPTLLIYKVSNRFSGVPDRFSGSGSGTDFTLKISRVEAEDLGVYFCSQSTHVPLTFGAGSKLELK
notes: murine IgG
B15: SCT-Fa179 (antibody, V domains shown)
VH: QVQLQQSGAELVRPGTSVKVSCKASGYAFSNYLIEWVKQRPGQGLEWIGVINPGNGGTTYNEKFKDKATLTADRSSTTAYMQLSSLTSEDSAVFFCARTAYGSPLDYWGQGTTLTVSS
VL: DIKMTQSPSSMYASRGERVTITCKASQDINRYLSWLQQKPGKSPKTLIYRANRLVDGVPSRFSGSGSGQDYSLTISSLEYEDMGIYYCLQYDEFPYTFGGGTKLEIK
notes: murine IgG
B16: SCT-Fa183 (antibody, V domains shown)
VH: QVQLQQSGAELVRPGTSVKVSCKASGYAFTNYLIEWVKQRPGQGLEWIGVISPGSGATTYNEKFKGKATLTADRSSTTAYMQLSSLTSEDSAVYFCARSAYGSPLDFWGQGTTLTVSS
VL: DILLTQSPDILSVSPGERVSFSCRASQNIGTSIHWYQQRTNGSPRLLIKYASESISGISSRFSGSGSGTDFTLSINSVESEDIADYYCQQSNNWPFTFGSGTKLEIK
notes: murine IgG
B17: SCT-Fa182 (antibody, V domains shown)
VH: QVQLQQSGAELVRPGTSVKVSCKASGYAFTNYLIEWVKQRPGQGLEWIGVISPGSGATTYNEKFKGKATLTADRSSTTAYMQLSSLTSEDSAVYFCARSAYGSPLDFWGQGTTLTVSS
VL: DIKMTQSPSSMYASLGERVTITCKASQDINRYLSWFQQKPGKSPKTLIYRVNRLVDGVPLRFSGSGSGQDYSLTISSLDYEDMGIYYCQQYDEFPYTFGGGTKLEIK
notes: murine IgG
B18: SCT-Fa184 (antibody, V domains shown)
VH: QVQLQQSGAELVRPGTSVKVSCKASGYAFTNYLIEWVKQRPGQGLEWIGVISPGSGGTTYNEKFKGKATLTADKSSSTAYMQFSSLTSEDSAVYFCARSAYGHVFDYWGQGTTLTVSS
VL: DIKMTQSPSSIYASLGERVTITCKASQDINSYLKWFQQKPGKSPKTLIYRANRLVDGVPSRFSGSGSGQDYSLTISSLEYEDMGIYYCLQYDEFPYTFGGGTKLEIK
notes: murine IgG
B19: SCT-Fa180 (antibody, V domains shown)
VH: QVQLQQSGAELVRPGTSVKVSCKASGYAFTNYLIEWAKQRPGQGLEWIGVINPGSGATTYNEKFKGRATLTADMSSTTAYMQLSSLTSEDSAVFFCARTAYGSPLDCWGQGTTLTVSS
VL: DIKMTQSPSSMYASLGERVTITCKASQDINRYLSWLQQKAGKSPKTLIYRENRLVEGVPSRFSGSGSGQDYSLTISSLEYEDMGIYYCLQYDEFPYTFGGGTKLEIK
notes: murine IgG
B20: SCT-Fa185 (antibody, V domains shown)
VH: QVQLQQSGAELVRPGTSVRVSCTASGYAFTNYLIEWVKQRPGQGLEWIGVISPGSGGTTYNEKFKGKATLTADKSSSTAYMQFSSLTSEDSAVYFCARSAYGHVFDYWGQGTTLTVSS
VL: DIKMTQSPSSMYASLGERVTITCKASQDINSYLKWFQQKPGKSPKTLIYRANRLVDGVPSRFSGSGSGQDYSLTISSLEYEDMGIYYCLQYDEFPYTFGGGTKLEIK
notes: murine IgG
B21: SCT-Fa020 (antibody, V domains shown)
VH: EVQLHQSGPELVKPGASVKMSCKASGYTFTDYNMHWVKQSHGKSLEWIGYINPNNGGIIYNQNFKGKATLTVNKSSTTAYMELRSLTSEDSAVYYCVGSLDYWGQGTTLTVSS
VL: DIQMTQTTSSLSASLGDRVTISCRASQDINNYLNWYQQKPDETVKLLIYYTSRLHSGVPSRFSGSGSGTDYSLTISNLDQEDFATYFCQQGYMLPLTFDAGTKLELK
notes: murine IgG

Molecular target: T1, Human TIM-3 Human Fc tagged protein (human, fluorescently labeled with HiLyte Fluor 555 (sites not given))
T1 construct: Bought construct; also called TIM-3 protein tagged with human Fc; ACROBiosystems catalog no: TM3-H5258
Assay: capture slide probed with labeled TIM-3-Fc;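 note: IgG from single CD138-enriched plasma cells, isolated from lymphocytes, immobilized on a derivatized glass slide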

Binding result, binds:
B1
B2
B3
B4
B5
B6
B7
B8
B9
B10
B11
B12
B13
B14
B15
B16
B17
B18
B19
B20
B21
